US20160017025A1 (RAMOT AT TEL AVIV UNIVERSITY, published 2016)
Ends that are not written are not given here.

T1: APP MAP peptide WT (wild type = ISEVKMDA x8), APP aa 666-673 (also: multiple antigenic peptide, 8 copies, core not described)
T1 construct: Eight copies of the octapeptide as a multiple antigenic peptide; the branching core is not described; also called WT peptide
T1 peptide: ISEVKMDA

T2: APP MAP peptide IP (immunizing peptide = ISEVKLDA x8), half-Swedish mutation (also: multiple antigenic peptide, 8 copies, core not described)
T2 construct: Eight copies as a MAP; the core is not described; also called MAP1-IP
T2 peptide: ISEVKLDA

T3: APP MAP peptide SW (double Swedish mutation = ISEVNLDA x8) (also: multiple antigenic peptide, 8 copies, core not described)
T3 construct: Eight copies as a MAP; the core is not described
T3 peptide: ISEVNLDA

B1: F5.100 (BBS3) mAb (antibody, mouse IgG1, kappa, V domains shown)
VH: EVQLQQSGPELVKPGASVKISCKASGYTFTDYNMHWVKQSHGKRLEWIGYIYPHNGGTGYNQRFKSKATLTVDKSSSTAYMELRSLTSEDSAVYYCARPGTEAYWGQGTLVTVSA
VL: DIVMTQSQKFMSTSVGDRVSVTCKASQNVGTNVAWYQQKPGQSPKPLIYSASYRYSGVPDRFTGSGSGTDFTLTISNVQSEDLAEYFCQQFNSYPLTFGAGTKLELKR
notes: Mouse hybridoma IgG1; The mature N-termini were found as EVQLQ (H chain; D = residue 21); also called F5.100 mAb; murine BBS3 mAb
B2: F5.87 mAb (antibody, mouse IgG1, kappa, V domains shown)
VH: EVKLEESGGGLVQPGGSMKLSCAASGFTFSNAWMDWVRQSPEKGLEWVAEIRSKANNHATYYGESVKGRFTISRDDSKSSVYLQMNSLRAEDTGIYYCTATVRGGYWGQGTTLTVSS
VL: DIKMTQSPSSMYASLGERVTITCKASQDINSYLSWFQQKPGKSPKTLIYRANRLVDGVPSRFSGSGSGQDYSLTISSLEYEDMGIYYCLQYDEYPYTFGGGTKLEIKR
notes: Mouse hybridoma IgG1

What was measured:
[1] = biological target: T1, APP MAP peptide WT (wild type = …); assay: BIAcore SPR; mAb captured on Protein G on CM5 chip, MAP peptide as analyte
Procedure: (§1) The affinity of new MAbs was assessed by BIAcore. Protein G was immobilized on the CM5 chip as capturing molecule for the different mAbs. Each mAb (ligand) was bound separately to Protein G, and different APP MAP peptides were added separately to the liquid phase (analytes) at different concentrations to test the affinity of the mAb to each peptide. Each mAb was tested for its affinity to the different APP MAP peptides for aa 666-673 WT (wild type=[…], SEQ ID NO:18), IP (immunizing peptide=[…], SEQ ID NO:15), and SW ([…], SEQ ID NO:17). The chip was regenerated by HCl after each cycle of mAb-peptide.

[2] = biological target: T2, APP MAP peptide IP (immunizing peptide …); assay: as above
Procedure: as §1

[3] = biological target: T3, APP MAP peptide SW (double Swedish …); assay: as above
Procedure: as §1

[4] = biological target: T1, APP MAP peptide WT (wild type = …); assay: BIAcore SPR; reference BBS1
Procedure: as §1

| Binder | Kd [1] [nM] | Kd [2] [nM] | Kd [3] [nM] | fold improvement in affinity over BBS1 [4] [fold] |
| --- | --- | --- | --- | --- |
| B1 | 1.5 | 3.8 | 8.8 | 1000 |
| B2 | 3.3 | 1.2 | 1.1 | 1000 |
